13 molecules from patent US20210380703A1 (RIGEL PHARMACEUTICALS, published 2021) can be followed below.

The target of assay [1] is Mouse ACVR2A (mouse, UniProt P27038 20-135, limits assumed). Nature of the assay: ELISA. Here is the method:
(§1) The binding of ACVR2A-specific monoclonal antibodies to human ACVR2A, mouse ACVR2A, biotinylated goat anti-human kappa light chain (positive control) and human Fc (negative control) were determined by ELISA.

The target of assay [2] is T1, Human ACVR2A (human, UniProt P27037 20-135, limits assumed).
T1 construct: also called activin receptor, type II A
Nature of the assay: ELISA. Here is the method:
as §1

The target of assay [3] is T2, Goat anti-Human Kappa.
T2 construct: Positive control; also called biotinylated goat anti-human kappa light chain
Kind of assay: ELISA; positive control. Here is the method:
as §1
Note: test concentration or dose not given here.

Sequence of Mouse ACVR2A (P27038 20-135 limits assumed): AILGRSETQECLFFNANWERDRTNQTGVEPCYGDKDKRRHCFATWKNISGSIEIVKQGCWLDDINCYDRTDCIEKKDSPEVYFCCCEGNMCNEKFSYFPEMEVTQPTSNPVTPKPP
T1 sequence (P27037 20-135 limits assumed): as the sequence (P27038 20-135 limits assumed) above, with R20K, I73V counted along it

B1: 365_D12 (antibody, V domains shown)
VH: EVQLLESGGGLVQPGGSLRLSCAASGFTFDSYGMNWVRQAPGKGLEWVSNINYNGGYTGYADSVKGRFTISRDNSKNTLYLQMNSLRAEDTAVYYCARSANWHDTALDYWGQGTLVTVSS
VL: DIQMTQSPSSLSASVGDRVTITCRASQSIVTYLNWYQQKPGKAPKLVIYAATSRASGVPSRFSGSGSGTDFTLTISSLQPEDFATYYCQQSYDTPLTFGGGTKVEIK
notes: VH/VL only
For the molecule B1, the values for the optical density in assay [1], in assay [2] and in assay [3] were 2.61 OD, 2.57 OD and 3.53 OD, respectively.

B2: 365_E07 (antibody, V domains shown)
VH: EVQLLESGGGLVQPGGSLRLSCAASGFTFDSYGMHWVRQAPGKGLEWVSGINYNSGYTSYADSVKGRFTISRDNSKNTLYLQMNSLRAEDTAVYYCAKSANWHDTHLDYWGQGTLVTVSS
VL: DIQMTQSPSSLSASVGDRVTITCRASQSILSYLNWYQQKPGKAPKLLIYAATSRASGVPSRFSGSGSGTDFTLTISSLQPEDFATYYCQQSYDNPLTFGGGTKVEIK
notes: VH/VL only
With B2, the optical density in assay [1] came out at 2.7 OD; in assay [2], 2.38 OD; in assay [3], 3.51 OD.

B3: 365_E09 (antibody, V domains shown)
VH: EVQLLESGGGLVQPGGSLRLSCAASGFTFSSYGMHWVRQAPGKGLEWVASINYNSGYKSYADSVKGRFTISRDNSKNTLYLQMNSLRAEDTAVYYCARSANWHDTALDYWGQGTLVTVSS
VL: DIQMTQSPSSLSASVGDRVTITCRASQSILTYVNWYQQKPGKAPKLVIYAATSRASGVPSRFSGSGSGTDFTLTISSLQPEDFATYYCQQSDDSPLTFGGGTKVEIK
notes: VH/VL only
Consider B3, for which the optical density turned out to be 2.16 OD in assay [1], 1.91 OD in assay [2] and 3.47 OD in assay [3].

B4: 365_G11 (antibody, V domains shown)
VH: EVQLLESGGGLVQPGGSLRLSCAASGFTFSSYGMNWVRQAPGKGLEWVANINYNGGYTGYADSVKGRFTISRDNSKNTLYLQMNSLRAEDTAVYYCARSANWHDTALDYWGQGTLVTVSS
VL: DIQMTQSPSSLSASVGDRVTITCRASQSIITYVNWYQQKPGKAPKLLIYAVTSRHSGVPSRFSGSGSGTDFTLTISSLQPEDFATYYCQQSYNSPLTFGGGTKVEIK
notes: VH/VL only
For B4, the optical density in assay [1] was determined as 1.78 OD; in assay [2] it was 1.75 OD; in assay [3], 3.47 OD.

B5: 365_F12 (antibody, V domains shown)
VH: EVQLLESGGGLVQPGGSLRLSCAASGFTFSDYSMNWVRQAPGKGLEWVSGINYNGGYTSYADSVKGRFTISRDNSKNTLYLQMNSLRAEDTAVYYCARSANWHDTHLDYWGQGTLVTVSS
VL: DIQMTQSPSSLSASVGDRVTITCRASQSILTYVNWYQQKPGKAPKLVIYAATSRHSGVPSRFSGSGSGTDFTLTISSLQPEDFATYYCQQSYETPLTFGGGTKVEIK
notes: VH/VL only
On to B5, for which the figures for the optical density in assay [1], in assay [2] and in assay [3] were 2.83 OD, 2.91 OD and 3.63 OD, respectively.

B6: 365_H02 (antibody, V domains shown)
VH: EVQLLESGGGLVQPGGSLRLSCAASGFTFSDYGMNWVRQAPGKGLEWVSSINYNGGYTGYADSVKGRFTISRDNSKNTLYLQMNSLRAEDTAVYYCARSANWHDTHLDYWGQGTLVTVSS
VL: DIQMTQSPSSLSASVGDRVTITCRASQSILTYLNWYQQKPGKAPKLLIYAATSRASGVPSRFSGSGSGTDFTLTISSLQPEDFATYYCQQSYENPLTFGGGTKVEIK
notes: VH/VL only
For the molecule B6, the optical density turned out to be 2.91 OD in assay [1], 2.73 OD in assay [2] and 3.58 OD in assay [3].

B7: 365_G01 (antibody, V domains shown)
VH: EVQLLESGGGLVQPGGSLRLSCAASGFTFDSYGMNWVRQAPGKGLEWVAGINYNSGYKSYADSVKGRFTISRDNSKNTLYLQMNSLRAEDTAVYYCARSANWHDTALDYWGQGTLVTVSS
VL: DIQMTQSPSSLSASVGDRVTITCRASQSILTYVNWYQQKPGKAPKLLIYATTSRASGVPSRFSGSGSGTDFTLTISSLQPEDFATYYCQQSYDSPLTFGGGTKVEIK
notes: VH/VL only
For B7, the optical density in assay [1] worked out at 2.65 OD; in assay [2], 2.48 OD; in assay [3] it was 3.45 OD.

B8: 365_E11 (antibody, V domains shown)
VH: EVQLLESGGGLVQPGGSLRLSCAASGFTFDDYSMNWVRQAPGKGLEWVSSINYNGGYKSYADSVKGRFTISRDNSKNTLYLQMNSLRAEDTAVYYCARGATWHDTHLDYWGQGTLVTVSS
VL: not shown
notes: VH/VL only
As for B8, the optical density in assay [1] worked out at 1.74 OD; in assay [2], 1.74 OD; in assay [3], 3.57 OD.

B9: 365_F06 (antibody, V domains shown)
VH: EVQLLESGGGLVQPGGSLRLSCAASGFTFSSYGMNWVRQAPGKGLEWVAGINYNSGYKSYADSVKGRFTISRDNSKNTLYLQMNSLRAEDTAVYYCARSANWHDTALDYWGQGTLVTVSS
VL: DIQMTQSPSSLSASVGDRVTITCRASQSILSYVNWYQQKPGKAPKLLIYAATSRASGVPSRFSGSGSGTDFTLTISSLQPEDFATYYCQQSDNLPLTFGGGTKVEIK
notes: VH/VL only
As for B9, the optical density in assay [1] is 2.08 OD; in assay [2], 1.95 OD; in assay [3], 3.4 OD.

B10: 365_H05 (antibody, V domains shown)
VH: EVQLLESGGGLVQPGGSLRLSCAASGFTFSSYGMNWVRQAPGKGLEWVAGINYNGGYTSYADSVKGRFTISRDNSKNTLYLQMNSLRAEDTAVYYCARGATWHDTHLDYWGQGTLVTVSS
VL: DIQMTQSPSSLSASVGDRVTITCRASQSILTYVNWYQQKPGKAPKLLIYAATSLHSGVPSRFSGSGSGTDFTLTISSLQPEDFATYYCQQSYSTPLTFGGGTKVEIK
notes: VH/VL only
For B10, the values for the optical density in assay [1], in assay [2] and in assay [3] were 2.19 OD, 2.1 OD and 3.46 OD, respectively.

B11: 365_F05 (antibody, V domains shown)
VH: EVQLLESGGGLVQPGGSLRLSCAASGFTFSSYGMNWVRQAPGKGLEWVASINYNGGYTSYADSVKGRFTISRDNSKNTLYLQMNSLRAEDTAVYYCARGATWHDTHLDYWGQGTLVTVSS
VL: DIQMTQSPSSLSASVGDRVTITCRASQSIVTYVNWYQQKPGKAPKLLIYAATSRASGVPSRFSGSGSGTDFTLTISSLQPEDFATYYCQQSYETPLTFGGGTKVEIK
notes: VH/VL only
Turning to B11, the optical density in assay [1] came to 2.23 OD; in assay [2], 2.14 OD; in assay [3], 3.42 OD.

B12: 365_E01 (antibody, V domains shown)
VH: EVQLLESGGGLVQPGGSLRLSCAASGFTFSDYSMNWVRQAPGKGLEWVSGINYNSGYKGYADSVKGRFTISRDNSKNTLYLQMNSLRAEDTAVYYCARSANWHDTALDYWGQGTLVTVSS
VL: DIQMTQSPSSLSASVGDRVTITCRASQSIISYLNWYQQKPGKAPKLLIYAATSRASGVPSRFSGSGSGTDFTLTISSLQPEDFATYYCQQSYDSPLTFGGGTKVEIK
notes: VH/VL only
Turning to B12, the results for the optical density in assay [1], in assay [2] and in assay [3] were 2.84 OD, 2.91 OD and 3.54 OD, respectively.

B13: 365_E05 (antibody, V domains shown)
VH: EVQLLESGGGLVQPGGSLRLSCAASGFTFSSYGMHWVRQAPGKGLEWVAGINYNGGYTSYADSVKGRFTISRDNSKNTLYLQMNSLRAEDTAVYYCARSANWHDTALDYWGQGTLVTVSS
VL: DIQMTQSPSSLSASVGDRVTITCRASQSIVSYVNWYQQKPGKAPKLLIYAATSLASGVPSRFSGSGSGTDFTLTISSLQPEDFATYYCQQSYDNPLTFGGGTKVEIK
notes: VH/VL only
As to B13, the figures for the optical density in assay [1], in assay [2] and in assay [3] were 2.44 OD, 2.18 OD and 3.36 OD, respectively.
